Measurements published in patent US7122360.

Tests used:
CREBtide = system: T1, CREBtide
T1 sequence: EILSRRPSYRK

Crosstide = system: T2, Crosstide
T2 sequence: GRPRTSSFAEG

[1] = system: T3, KKRNRTLSVA with the arginine at position n-3 changed to lysine
T3 sequence: KKRNKTLSVA

[2] = system: KKRNRTLSVA with the arginine at position n-5 changed to leucine
peptide KKRNRTLSVA = system: T4, peptide KKRNRTLSVA
T4 sequence: KKRNRTLSVA

[3] = system: GST-MAPKAP-K1a [GST: P08515]
Sequence of GST-MAPKAP-K1a [GST: P08515] (P08515 whole entry, looked up): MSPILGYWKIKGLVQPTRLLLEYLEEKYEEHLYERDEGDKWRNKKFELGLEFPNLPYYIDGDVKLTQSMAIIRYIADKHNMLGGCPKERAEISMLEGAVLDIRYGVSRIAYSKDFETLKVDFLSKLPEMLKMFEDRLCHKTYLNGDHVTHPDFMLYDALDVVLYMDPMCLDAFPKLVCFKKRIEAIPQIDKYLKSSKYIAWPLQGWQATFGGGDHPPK

Sequence of GST-MSK1 (chain, as listed by the source): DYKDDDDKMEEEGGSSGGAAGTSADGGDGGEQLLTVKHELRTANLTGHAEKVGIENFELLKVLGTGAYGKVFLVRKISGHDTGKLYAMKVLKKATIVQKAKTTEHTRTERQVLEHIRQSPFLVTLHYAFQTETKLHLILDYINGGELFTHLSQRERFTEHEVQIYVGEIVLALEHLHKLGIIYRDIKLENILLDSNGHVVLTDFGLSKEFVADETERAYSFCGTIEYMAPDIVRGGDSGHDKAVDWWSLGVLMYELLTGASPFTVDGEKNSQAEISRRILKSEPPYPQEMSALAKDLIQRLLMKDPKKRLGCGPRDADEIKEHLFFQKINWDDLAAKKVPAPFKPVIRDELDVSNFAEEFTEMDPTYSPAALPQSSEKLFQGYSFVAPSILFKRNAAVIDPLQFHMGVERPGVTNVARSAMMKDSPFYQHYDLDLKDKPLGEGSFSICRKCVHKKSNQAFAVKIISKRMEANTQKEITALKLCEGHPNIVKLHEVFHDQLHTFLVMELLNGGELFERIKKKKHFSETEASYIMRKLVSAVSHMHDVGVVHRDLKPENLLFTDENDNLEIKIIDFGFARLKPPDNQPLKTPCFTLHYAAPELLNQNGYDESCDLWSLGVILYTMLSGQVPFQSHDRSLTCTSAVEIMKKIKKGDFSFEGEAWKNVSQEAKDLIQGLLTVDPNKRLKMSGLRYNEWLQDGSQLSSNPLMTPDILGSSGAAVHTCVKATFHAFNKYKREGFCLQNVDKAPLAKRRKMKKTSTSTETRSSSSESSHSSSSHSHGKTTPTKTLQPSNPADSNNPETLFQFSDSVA
Sequence of GST-CREB [GST: P08515] (P08515 whole entry, looked up): as the sequence (P08515 whole entry, looked up) above

Substance: GST-MAPKAP-K1a
- Km relative to MSK1 (CREBtide): Km values that were at least 200-fold higher
- Km (Crosstide): 2 to 3 µM
- Km (GST-CREB [GST: P08515]): the Km was too high to be measured
- Km relative to KKRNRTLSVA [1]: increased the Km about 100-fold
- Km relative to KKRNRTLSVA [2]: 5 fold
- Km and Vmax (peptide KKRNRTLSVA): almost identical Km and Vmax values as for Crosstide

Substance: GST-MAPKAP-K2
- Km (GST-CREB [GST: P08515]): the Km was too high to be measured
- phosphorylation of Ser98 relative to Ser133 of CREB (GST-CREB [GST: P08515]): 10-fold higher level than Ser133
- phosphorylation of substrate in vitro (heat shock protein 27): much more active towards heat shock protein 27

Substance: activated GST-MAPK2/ERK2
- activity towards Crosstide after incubation with MgATP and activated MAPK2/ERK2 [3]: enhanced over 100-fold
- activity towards Crosstide after incubation with MgATP and activated MAPK2/ERK2 (GST-MSK1): enhanced over 100-fold

Substance: activated GST-SAPK1/JNK1γ
- activation in vitro (activity towards Crosstide) [3]: did not activate
- activation in vitro (activity towards Crosstide) (GST-MSK1): did not activate

Substance: activated GST-SAPK2a/p38a
- activation in vitro (activity towards Crosstide) [3]: could not
- activation in vitro (activity towards Crosstide) (GST-MSK1): could also be activated similarly

Substance: activated GST-SAPK2b/p38β
- activation in vitro (activity towards Crosstide) [3]: could not
- activation in vitro (activity towards Crosstide) (GST-MSK1): could also be activated similarly

Substance: activated GST-SAPK3/p38γ
- activation in vitro (activity towards Crosstide) [3]: did not activate
- activation in vitro (activity towards Crosstide) (GST-MSK1): did not activate

Substance: activated GST-SAPK4/p38δ
- activation in vitro (activity towards Crosstide) [3]: did not activate
